# Laboratory results: PMC2839365
# Target: ZU5 domain of ankyrin
# Test: ITC
# Sequence of ZU5 domain of ankyrin (P16157 913-1068): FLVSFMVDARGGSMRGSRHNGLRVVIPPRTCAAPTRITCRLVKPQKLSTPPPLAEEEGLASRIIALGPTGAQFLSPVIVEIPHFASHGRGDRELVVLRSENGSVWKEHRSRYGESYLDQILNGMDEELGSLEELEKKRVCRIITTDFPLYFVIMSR
row,Substance,dH [kcal/mol]
1,βI14-15 A1867P (domain or fragment),0.904
2,βI14-15 E1784A (domain or fragment),5.21
3,βI14-15 Y1866A (domain or fragment),2.52
4,βI14-15 D1781A (domain or fragment),5.52
5,βI14-15 T1788A (domain or fragment),2.08
6,βI14-15 E1708A (domain or fragment),3.27

# Results, then the substance that gave them:
row,dH [kcal/mol],Substance
1,5.98,wild type βI-spectrin 14-15 di-repeat (domain or fragment)
2,4.82,βI14-15 E1703A (domain or fragment)
3,3.73,βI14-15 E1710A (domain or fragment)
4,4.64,βI14-15 D1701A (domain or fragment)
5,4.42,βI14-15 D1700A (domain or fragment)
